One series has as its target T1, 53BP1 (Homo sapiens, UniProt Q12888).
T1 construct: endogenous in cells
The following applies: blocking 53BP1 tudor domain binding to H4K20me2; cited from earlier work.

For series [1], the system named is XMEN CD34^+ HSPCs. Nature of the series: Targeted insertion (TI) of MAGT1 cDNA by ddPCR in gene-edited CD34+ HSPCs. The series is classed as cell-based, human. The following applies: ddPCR 48-72 h post-EP, input pre-transplant. The source says: (A) Location of the 10 candidate sgRNAs targeting MAGT1 gene transcription start site (TSS). Each sgRNA (sg) is represented as a 20-bp sequence (light grey or green) associated with the 3-bp PAM sequence (darker color). (B) Evaluation of the percentage of cutting activity by TIDE assay after gDNA extraction from untreated versus Cas9/sgRNA treated HD CD34+ cells at 2-5 days post electroporation, sequencing of Exon 1 and comparison of the sequences using TIDE software (n=1-5 independent experiments). (C) Design of the rAAV6-MAGT1 donor. (D) Molecular analysis showing the percentage of targeted insertion in gene-edited XMEN CD34+ cells using gene editing enhancers as described. gDNA was extracted at 48 h-72 h post-EP and insertion of the MAGT1 cDNA donor was quantified by ddPCR (n=3-11 independent experiments). (E) Viability determined by blue trypan exclusion in untreated Naive and AAV-MAGT1-treated XMEN HSPCs at day 2 post-EP (n=1-7 independent experiments). (F) Representative analysis of the phenotype of CD34+ cells at day 2 post-EP. […]
(§1) Targeted insertion (TI) of MAGT1 cDNA was quantified by digital droplet PCR (ddPCR) using one primer located upstream of the LHA (5′-[…]−3′, SEQ ID NO:42) the second primer (5′-[…]-3′, SEQ ID NO:43) inside the cDNA and a probe (5′-[…]-3′, SEQ ID NO:44).

For series [2], the system named is XMEN CD34^+ HSPCs. Briefly: Viability of gene-edited CD34+ HSPCs by trypan blue exclusion. The series is classed as cell-based, human. The following applies: day 2 post-EP. The source says: (A) Location of the 10 candidate sgRNAs targeting MAGT1 gene transcription start site (TSS). Each sgRNA (sg) is represented as a 20-bp sequence (light grey or green) associated with the 3-bp PAM sequence (darker color). (B) Evaluation of the percentage of cutting activity by TIDE assay after gDNA extraction from untreated versus Cas9/sgRNA treated HD CD34+ cells at 2-5 days post electroporation, sequencing of Exon 1 and comparison of the sequences using TIDE software (n=1-5 independent experiments). (C) Design of the rAAV6-MAGT1 donor. (D) Molecular analysis showing the percentage of targeted insertion in gene-edited XMEN CD34+ cells using gene editing enhancers as described. gDNA was extracted at 48 h-72 h post-EP and insertion of the MAGT1 cDNA donor was quantified by ddPCR (n=3-11 independent experiments). (E) Viability determined by blue trypan exclusion in untreated Naive and AAV-MAGT1-treated XMEN HSPCs at day 2 post-EP (n=1-7 independent experiments). (F) Representative analysis of the phenotype of CD34+ cells at day 2 post-EP. For all the graphs, data are shown as mean±standard deviation (SD); ANOVA one-way test and Tukey's post hoc multiple comparisons test, *p<0.05, *p<0.01, ***p<0.001, ****p<0.0001.
Cryopreserved CD34^+ HSPCs were thawed (day 0) and cultured in StemSpan SFEM II medium (STEMCELL™ Technologies) supplemented with 100 ng/mL stem cell factor (SCF), Flt3 ligand, thrombopoietin (Peprotech), 0.75 μM of StemRegenin-1 (STEMCELL™ Technologies) and 35 nM of UM171 (STEMCELL™ Technologies) for 2 days (37). […] At 48 h post-EP, the cells were harvested and counted by hemocytometer with trypan blue to determine viability before their use for molecular analysis, phenotypic analysis by flow cytometry, CFU assay, T or NK cell differentiation or cryopreservation for transplant studies.

Series [3] concerns NK cells (CD3-CD56^+) differentiated from XMEN CD34^+ HSPCs. Nature of the series: In vitro NK cell differentiation from gene-edited CD34+ cells: NKG2D expression and TI. Type of series: cell-based, human.
Source text: (B) Dot plot showing the gating for NK cells (CD3-CD56+) and NKG2D expression after 35 days of in vitro NK cell differentiation from CD34+ cells; histogram on the right showing the percentage of CD34-derived NK cells in each condition (n=2-8 independent experiments). (C) NKG2D expression and (D) targeted integration in NK cells at day 35 of in vitro differentiation (n=2-8 independent experiments). (E) Cytotoxic activity of CD34+-differentiated NK cells against K562 cells at an E:T ratio of 2:1 (n=1-7 independent experiments). For all the graphs, data are shown as mean±SD; *p<0.05, *p<0.01, ***p<0.001, ****p<0.0001. (F) Correlation between the NKG2D expression (%) and the killing activity (%) in NK cells at day 35 was calculated using Spearman's correlation coefficient and two-tailed p-value (n=21 samples).
CD34^+ HSPCs were differentiated into NK cells in vitro using a protocol adapted from (47). 200,000 CD34^+ cells were resuspended in IMDM supplemented with 20% FBS and 50 μM BME containing 5 ng/mL rhIL-3 (first week only), 10 ng/mL IL-15, 20 ng/mL IL-7, 20 ng/mL SCF, 10 ng/mL Flt3L and 100 U/mL IL2 for 35 days. […]
as §1

The subject of series [4] is NSGS immunodeficient mice. Briefly: Transplantation of gene-edited XMEN CD34+ HSPCs into NSGS mice. The conditions noted are these: for post-transplant TI: ddPCR, human CD45+ cells from bone marrow, week 16. The series is classed as in vivo, mouse.
Source text: (A) Human engraftment measured by the presence of human CD45^+ cells by flow cytometry at week 16 in the peripheral blood, bone marrow, spleen and thymus of NSGS mice transplanted with HD (n=5 mice), untreated (n=12) or gene-edited XMEN CD34^+ HSCs (n=1 (−i53), n=8 (+i53), n=18 (+i53^+ GSE-CS56)). The dotted line indicates the threshold for engraftment at 0.2% hCD45^+ cells in the bone marrow. (B) Percentage of human engraftment (hCD45^+) measured after injection of XMEN HSPCs gene edited with increasing Multiplicity of Infection (MOIs) of AAV, in presence of i53 alone or i53 and GSE-CS56. (C) Immunophenotypic analysis of bone marrow at 16 weeks post-transplant by flow cytometry showing the percentages of CD34^+ cells, myeloid (CD33^+), lymphoid B (CD19^+) and T (CD3^+) after gating on the hCD45^+ population. (D and E) Restoration of NKG2D expression in NK cells from the spleen (D) and CD8^+ T cells from the peripheral blood, spleen and thymus (E) at week 16 post-transplant. For all the graphs, data are shown as mean±SD. (F and G) Targeted insertion quantified by ddPCR in human CD45^+ cells isolated from the bone marrow after gene editing with i53 (orange bar) or with i53 and GSE-CS56 (green bar) (F); or in the lymphoid T (CD3), myeloid (CD33/CD14) and lymphoid B (CD19) cells sorted from the spleen (G).
The use of triple transgenic immunodeficient mice NOD.Cg-Prkd^scid Il2rg^tm1Wjl Tg (NSG-SGM3 or NSGS) expressing human IL3, GM-CSF and SCF cytokines (30) (Stock No: 013062; The Jackson Laboratory) for transplantation studies was approved by NIAID Institutional Animal Care and Use Committee under the animal use protocol LCIM-1E. The conduct of these studies conforms to AAALAC International guidelines and all US federal regulations required for protection of research animals. Newborn mice (0-4 days old) were irradiated at 100 cGy and immediately intrahepatically injected (courtesy of Mara Pavel-Dinu) with 1-1.5×10^6 viable CD34^+ cells per mouse. Peripheral blood from tail vein was analyzed at weeks 12 and 16 after transplantation. At 16 weeks, mice were sacrificed, and bone marrow, spleen and thymus were harvested for analysis of engraftment, sorting or gDNA extraction as indicated. […]
as §1

Series [5] concerns HSPCs. The conditions noted are these: HSPCs from patients with CGD, SCD, SCID-X1; cited from earlier work.
For series [6], the system named is HSPCs. Briefly: Innate immune, transcriptional and toxicity response of HSPCs to the mRNAs during gene editing.
The subject of the next series is CD34^+ HSPCs. Nature of the series: CFSE proliferation assay. Type of series: cell-based, human. The conditions noted are these: CFSE stain day 1 post EP, flow cytometry day 6. The source says:
(A) Optimization of cutting activity (% indels) of various forms of Cas9 mRNA and at increasing concentration. Commercial Cas9 mRNA (MaxCyte, Mx) is used as control. (B) Evaluation of the glycerol concentration in the EP mix on viability and cutting activity at day 2 post EP. (C) Representative dot plots showing the immunophenotype analysis of HSPCs by flow cytometry at day 2 post EP. (D) Hematopoietic potential evaluated by the CFU assay at day 2 post-EP; Number of CFU colonies were counted after 14 days. (E) Measure of the proliferation index after staining HD HSPCs at day 1 post EP with CFSE dye and analysis of the proliferation by flow cytometry at day 6 post EP.
The following day after EP, CD34^+ cells were stained with CellTrace™ CFSE kit per manufacturer's instructions (ThermoFisher Scientific) and analyzed by flow cytometry 5 days later. Determination of the proliferation index was done using FlowJo software.
Background: In flow cytometry, cells or beads pass a laser one at a time.

T1 sequence (Q12888 whole entry): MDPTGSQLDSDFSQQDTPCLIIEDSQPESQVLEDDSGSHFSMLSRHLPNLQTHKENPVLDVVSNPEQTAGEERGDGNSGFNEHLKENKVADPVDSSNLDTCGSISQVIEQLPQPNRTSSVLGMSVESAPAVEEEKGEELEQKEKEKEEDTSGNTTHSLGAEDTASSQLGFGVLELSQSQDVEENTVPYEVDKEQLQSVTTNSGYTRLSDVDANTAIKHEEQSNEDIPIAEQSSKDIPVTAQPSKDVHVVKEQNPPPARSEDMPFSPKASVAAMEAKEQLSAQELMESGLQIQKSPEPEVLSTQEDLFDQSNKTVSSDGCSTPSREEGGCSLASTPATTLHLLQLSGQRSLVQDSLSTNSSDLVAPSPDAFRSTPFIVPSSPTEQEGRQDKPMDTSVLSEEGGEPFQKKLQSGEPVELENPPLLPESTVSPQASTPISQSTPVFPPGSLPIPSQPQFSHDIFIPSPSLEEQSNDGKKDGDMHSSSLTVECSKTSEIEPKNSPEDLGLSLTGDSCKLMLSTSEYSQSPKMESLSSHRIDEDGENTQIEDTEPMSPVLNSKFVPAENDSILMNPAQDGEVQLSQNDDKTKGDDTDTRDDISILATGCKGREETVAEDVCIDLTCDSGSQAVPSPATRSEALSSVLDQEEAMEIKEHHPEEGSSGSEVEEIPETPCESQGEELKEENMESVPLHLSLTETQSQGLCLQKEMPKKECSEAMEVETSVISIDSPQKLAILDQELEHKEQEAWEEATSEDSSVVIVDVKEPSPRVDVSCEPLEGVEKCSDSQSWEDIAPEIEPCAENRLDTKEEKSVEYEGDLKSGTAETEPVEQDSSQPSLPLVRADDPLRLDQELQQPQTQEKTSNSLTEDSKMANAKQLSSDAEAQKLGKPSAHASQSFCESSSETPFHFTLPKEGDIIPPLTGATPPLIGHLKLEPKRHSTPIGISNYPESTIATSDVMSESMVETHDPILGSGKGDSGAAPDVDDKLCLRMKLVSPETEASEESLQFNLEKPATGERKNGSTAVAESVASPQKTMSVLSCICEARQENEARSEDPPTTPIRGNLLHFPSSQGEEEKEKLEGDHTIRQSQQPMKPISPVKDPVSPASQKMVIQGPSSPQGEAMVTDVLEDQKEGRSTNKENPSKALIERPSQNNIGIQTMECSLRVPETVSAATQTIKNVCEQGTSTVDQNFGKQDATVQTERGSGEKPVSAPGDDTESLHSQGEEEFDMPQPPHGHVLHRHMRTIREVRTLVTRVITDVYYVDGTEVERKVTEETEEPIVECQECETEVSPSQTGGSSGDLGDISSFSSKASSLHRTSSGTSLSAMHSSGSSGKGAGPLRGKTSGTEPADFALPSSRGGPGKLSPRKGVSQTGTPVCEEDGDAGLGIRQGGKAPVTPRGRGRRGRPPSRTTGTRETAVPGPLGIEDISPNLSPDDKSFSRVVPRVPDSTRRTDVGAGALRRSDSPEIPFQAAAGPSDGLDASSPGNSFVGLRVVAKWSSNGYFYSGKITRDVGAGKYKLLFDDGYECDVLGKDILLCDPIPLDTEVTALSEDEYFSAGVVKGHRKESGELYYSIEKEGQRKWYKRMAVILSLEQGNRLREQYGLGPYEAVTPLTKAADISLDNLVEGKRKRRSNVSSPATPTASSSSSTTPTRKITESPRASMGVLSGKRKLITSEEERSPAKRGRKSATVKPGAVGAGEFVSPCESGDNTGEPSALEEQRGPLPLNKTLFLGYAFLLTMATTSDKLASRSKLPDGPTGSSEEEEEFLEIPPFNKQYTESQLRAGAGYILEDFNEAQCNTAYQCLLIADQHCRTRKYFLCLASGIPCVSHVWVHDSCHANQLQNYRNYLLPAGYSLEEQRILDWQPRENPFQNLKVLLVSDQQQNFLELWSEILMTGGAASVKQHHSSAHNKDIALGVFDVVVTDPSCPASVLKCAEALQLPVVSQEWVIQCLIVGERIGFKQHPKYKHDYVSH

As for “i53 protein: ubiquitin variant (SEQ ID NO:2) of Canny et al. that binds the tandem tudor domain of 53BP1”, the “increase of repair by HDR” value with 53BP1 is given as “about 2 fold”.

For “i53 mRNA: pseudouridine-modified mRNA encoding i53, an inhibitor of 53BP1 (ubiquitin variant, SEQ ID NO:6)”, the “AAV-MAGT1 TI rates (targeted insertion)” value in the series on XMEN CD34^+ HSPCs [1] was 50.0±18.2%. Moreover, the “viability of GE CD34+ HSPCs” value in the series with XMEN CD34^+ HSPCs [2] was “decreased after gene editing, independently of i53”. Further, the “NKG2D expression in in vitro differentiated NK cells” value in series [3] (day 35 of culture) is listed as 26%. Also, in series [3] (day 35 of in vitro differentiation, ddPCR), the “molecular TI rates in NK cells” value turned out to be 34%. In addition, the “post-transplant TI” value in series [4] is recorded as 54.5±18.3%. The “engraftment of human CD45+ cells in the BM” value in series [4] (week 16, NSGS mice, bone marrow) came out at 11.03%. Also, the “levels of HDR-mediated TI with AAV donors or gene correction with ssODN donors” value in the series on HSPCs [5] was “above 60%”. The “upregulation of interferon or other cytokines or cellular stress genes, transcriptional repression, toxicity or loss of viability” value in the series on HSPCs [6] is “not observed any significant upregulation”.

B1: GSE CS-56 mRNA: mRNA encoding a human TP53 genetic suppressor element, a dominant negative deletion mutant of TP53 (nucleic acid)
chain: GGGUAAUACAAGCUUGCUUGUUCUUUUUGCAGAAGCUCAGAAUAAACGCUCAACUUUGGCAGCCACCAUGGAUUGUCCUGGGAGAGACCGGCGCACAGAGGAAGAGAAUCUCCGCAAGAAAGGGGAGCCUCACCACGAGCUGCCCCCAGGGAGCACUAAGCGAGCACUGCCCAACAACACCAGCUCCUCUCCCCAGCCAAAGAAGAAACCACUGGAUGGAGAAUAUUUCACCCUUCAGAUCCGUGGGCGUGAGCGCUUCGAGAUGUUCCGAGAGCUGAAUGAGGCCUUGGAACUCAAGGAUGCCCAGGCUGGGAAGGAGCCAGGGGGGAGCAGGGCUCACUCCAGCCACCUGAAGUAGUGAUAUCACUAGUGACUGACUAGGAUCUGGUUACCACUAAACCAGCCUCAAGAACACCCGAAUGGAGUCUCUAAGCUACAUAAUACCAACUUACACUUUACAAAAUGUUGUCCCCCAAAAUGUAGCCAUUCGUAUCUGCUCCUAAUAAAAAGAAAGUUUCUUCACAUUCUGCUAGCUCUAG
modifications: pseudouridine; (1)..(539) U=Pseudouridine
Take B1: the “AAV-MAGT1 TI rates (targeted insertion)” value in the series with XMEN CD34^+ HSPCs [1] was 62.3±18%. The “viability of GE CD34+ HSPCs” value with XMEN CD34^+ HSPCs [2] is reported as “significantly increased”; with XMEN CD34^+ HSPCs [2] (listed as GSE-CS56 mRNA), “rescue the cell viability”. The proliferative capacity entry in the series on CD34^+ HSPCs is recorded as “better preserved”. Further, the “post-transplant TI” value in series [4] is “slightly improved”. For the same molecule, the “percentages of NKG2D-expressing CD8+ T cells” value in series [4] (week 16 post-transplant, PB, spleen, thymus) is reported as “slightly improved”. For the same molecule, the “upregulation of interferon or other cytokines or cellular stress genes, transcriptional repression, toxicity or loss of viability” value with HSPCs [6] was “not observed any significant upregulation”.

The values above are taken from patent publication US20240181005A1, “COMPOSITIONS, SYSTEMS, AND METHODS FOR GENERATING GENE-EDITED CELLS” (CellScript, LLC, priority 2020, published 2024).
